Drawing on patent publication US20230348572A1, this text covers IC50 for three substances.

The target of assay [1] is RBD (amino acids 340-538 NITN.GPKK) expressed on the surface of MDCK-SIAT1 cells (SARS-CoV-2) (UniProt P0DTC2).
Assay [2] deals with RBD-6H (amino acid 340-538; NITN.GPKK), biotinylated (SARS-CoV-2) (UniProt P0DTC2).
Assay [3] has the same target. This is another data set of the same source.

Read-outs that look alike come from different tables or passages of the source.

As a reminder, the IC50 is the concentration that gives 50% inhibition. Regarding H11-H4-Fc (Fc fusion), the IC50 in assay [1] turned out to be 34 nM; in assay [2] it was 61 nM.
The matching figures for VHH72-Fc (Fc fusion): 33 nM and 262 nM.
Consider CR3022-Fc (antibody), for which, in assay [3], the IC50 was determined as 803 nM.
